To fix the notation:
T1: human CD22, endogenous on Raji cells (human, UniProt P20273 20-847)
T1 construct: whole, on cells; Endogenous protein of the Raji cell line
T1 sequence (looked up): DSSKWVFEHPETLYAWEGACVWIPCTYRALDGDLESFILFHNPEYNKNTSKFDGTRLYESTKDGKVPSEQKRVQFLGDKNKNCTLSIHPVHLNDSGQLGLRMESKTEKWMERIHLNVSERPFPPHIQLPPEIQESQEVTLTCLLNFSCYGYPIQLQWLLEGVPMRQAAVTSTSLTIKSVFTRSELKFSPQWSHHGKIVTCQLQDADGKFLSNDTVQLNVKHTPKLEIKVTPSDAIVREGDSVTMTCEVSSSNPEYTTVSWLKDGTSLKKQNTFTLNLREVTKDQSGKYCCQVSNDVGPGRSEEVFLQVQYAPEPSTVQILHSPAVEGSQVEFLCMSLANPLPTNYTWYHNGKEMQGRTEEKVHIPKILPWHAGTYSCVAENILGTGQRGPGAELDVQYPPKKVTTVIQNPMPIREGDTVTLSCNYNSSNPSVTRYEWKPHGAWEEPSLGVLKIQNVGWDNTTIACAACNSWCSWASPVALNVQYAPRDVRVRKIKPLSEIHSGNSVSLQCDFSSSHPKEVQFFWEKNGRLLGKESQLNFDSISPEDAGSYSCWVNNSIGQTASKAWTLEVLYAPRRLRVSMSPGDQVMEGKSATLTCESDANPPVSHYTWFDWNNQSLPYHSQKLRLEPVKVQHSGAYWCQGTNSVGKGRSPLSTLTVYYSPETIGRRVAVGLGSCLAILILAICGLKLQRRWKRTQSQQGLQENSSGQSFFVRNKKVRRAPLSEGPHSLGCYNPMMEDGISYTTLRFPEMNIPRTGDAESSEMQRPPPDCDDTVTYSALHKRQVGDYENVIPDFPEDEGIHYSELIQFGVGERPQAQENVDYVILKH

T2: human CD22, full length, on CHO-K1-human CD22 2C4 cells (human, UniProt P20273 20-847)
T2 construct: Full-length human CD22 (NCBI NP_001762.2) stably transfected into CHO-K1
T2 sequence: T1 sequence (looked up)

T3: murine CD22 protein (ACROBiosystems, SI2-M52Ha) (murine, UniProt P35329 22-708)
T3 construct: extracellular domain; also called murine CD22-ECD; murine CD22-ECD-His
T3 sequence (looked up): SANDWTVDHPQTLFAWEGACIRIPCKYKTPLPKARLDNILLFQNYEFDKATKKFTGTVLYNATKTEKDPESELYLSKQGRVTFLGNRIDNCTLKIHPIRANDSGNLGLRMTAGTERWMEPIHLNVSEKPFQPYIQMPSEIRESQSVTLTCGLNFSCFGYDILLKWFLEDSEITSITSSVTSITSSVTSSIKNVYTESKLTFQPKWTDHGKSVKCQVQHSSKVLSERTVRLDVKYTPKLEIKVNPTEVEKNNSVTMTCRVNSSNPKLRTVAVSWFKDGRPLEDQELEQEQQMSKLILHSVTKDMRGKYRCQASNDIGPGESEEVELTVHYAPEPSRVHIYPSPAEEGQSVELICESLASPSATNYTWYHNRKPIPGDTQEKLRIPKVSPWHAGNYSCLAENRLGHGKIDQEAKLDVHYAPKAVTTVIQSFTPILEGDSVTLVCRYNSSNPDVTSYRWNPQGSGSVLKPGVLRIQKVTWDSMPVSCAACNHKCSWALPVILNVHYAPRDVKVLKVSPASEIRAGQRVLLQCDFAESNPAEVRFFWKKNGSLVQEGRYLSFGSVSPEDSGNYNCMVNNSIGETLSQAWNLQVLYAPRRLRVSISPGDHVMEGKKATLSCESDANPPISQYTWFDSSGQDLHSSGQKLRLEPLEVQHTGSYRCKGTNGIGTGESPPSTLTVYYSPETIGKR

B1: F1.267.9 human-murine chimeric antibody (antibody, human IgG1, kappa, V domains shown)
VH: EVQLQQSGPVLVKPGASVKMSCKASGYTFTDFYMNWAKQSHGKSLEWVGVINPYNGGINYNQKFKGKATLTVDKSSSTAYMEFNSLTSEDSAVYYCARRMEYHAMDYWGQGTSVTVSS
VL: DIVLTQSPASLAVSLGQRATISCRASESVDNYGFDFIHWYQQKPGQPPKLLIYRASNLESGIPARFSGSGSRPDFTLTINPVETDDVATYYCQQSIKDPWTFGGGTKLEIKR
notes: Chimeric, human IgG1 / kappa; VL tied by name
B2: F1.105.11 human-murine chimeric antibody (antibody, human IgG1, kappa, V domains shown)
VH: EVQLQQSGPVLVKPGASVKMSCKASGYTFSDYFMNWVKQSHGKSLEWIGIINSYSGGTSYNQKFKGKATLTVDKSSSTAYMELNSLTSEDSAVYYCARWMDYWGQGTSVTVSS
VL: DVQITQSPSYLAASPGETITINCRTSESISKHLAWYQEKPGKTNKLLIYSGSTLQSGIPSRFSGSGSGTDFTLTISSLEPEDFAMYYCQQHNEYPWTFGGGTKLEIKR
notes: as for B1
B3: F1.231.15 human-murine chimeric antibody (antibody, human IgG1, V domains shown)
VH: QVQLQQPGAELVKPGASVKLSCKTSGYTFTIYWMQWVKQRPGRGLEWIGRIDPHSGDTHYNENFTTKVTLTVDETSNTAYMHLSGLTSEDSAVYYCARRDYSYYVLDYWGQGTSVTVSS
VL: DVVLTQTPLSLPVSLGDQASISCRSSQSLVHINGDTYLHWYLQKPGQSPKLLIYTVFNRFSGVPDRFSGSGSGTDFTLKISRVEAEDLGAYFCSQSTHVPYTFGGGTKLEIKR
notes: Chimeric: murine V regions on human IgG1 heavy constant region and kappa light constant region
B4: F1.7.6 human-murine chimeric antibody (antibody, human IgG1, kappa, V domains shown)
VH: EIQLQQSGPELVKPGTSVKVSCKASGYDFTRYNMYWVKQSHGKSLEWIGYIDPYNGDTRYNQKFKGKATLTVDKSSSTAYMHLNSLTSEDSAVYYCEAIYYDMEGYALDYWGQGTSVTVSS
VL: DIVMSQSPSSLAVSVGEKVTMSCKSSQSLLYSNNQKNYLAWYQQKPGQSPKKLIYWASTRESGVPDRLTGSGSGTDFTLTISSVTAEDLAVYYCQQFYSYPWTFGGGTKLEIKR
notes: as for B1
B5: m971-hIgG1 (antibody, V domains shown)
VH: QVQLQQSGPGLVKPSQTLSLTCAISGDSVSSNSAAWNWIRQSPSRGLEWLGRTYYRSKWYNDYAVSVKSRITINPDTSKNQFSLQLNSVTPEDTAVYYCAREVTGDLEDAFDIWGQGTMVTVSS
VL: DIQMTQSPSSLSASVGDRVTITCRASQTIWSYLNWYQQRPGKAPNLLIYAASSLQSGVPSRFSGRGSGTDFTLTISSLQAEDFATYYCQQSYSIPQTFGQGTKLEIKR
notes: Positive control anti-human CD22 antibody; V regions from US 8,591,889 B on human IgG1 constant regions

The target in one assay is T1, human CD22, endogenous on Raji cells. Put plainly: FACS, Raji cells. The source says: (§1) The required cells were scale-up cultured in a T-75 cell culture flask to the logarithmic growth phase. For the adherent cell CHO-K1, the medium was aspirated, the cells were washed 2 times with PBS buffer, and then digested with trypsin. After the digestion was terminated, the cells were washed 2 times with PBS buffer. For suspension cell Raji, the medium supernatant was directly centrifuged and discarded, and the cell pellet was washed 2 times with PBS. After counting the cells in the previous step, the cell pellet was resuspended with [PBS+2% (w/w) BSA] blocking solution to 2×10⁶ cells/ml, and added to a 96-well FACS reaction plate at 50 μl/well, and then the chimeric antibody test sample was added at 50 μl/well, and incubated on ice for 2 hours. The mixture was centrifuged and washed 3 times with PBS buffer, Alexa Flour 488-labeled secondary antibody (purchased from Invitrogen, catalog number: A-11013) was added at 50 μl/well, and incubated on ice for 1 hour. The obtained mixture was centrifuged and washed 5 times with PBS, and FACS (FACS Canto™, purchased from BD Company) was used for detection and result analysis. Data analysis was performed by software (CellQuest) to obtain the mean fluorescence density (MFI)of the cells. And then software (GraphPad Prism8) was used for analysis, data fitting, and EC50 value calculation. […] The same method was used to detect the binding of the chimeric antibodies to endogenous CD22-negative cell MoLT4 cells (purchased from ATCC, CRL-1582) and CHO-K1 cells.
(In general: A flow cytometer gives signals particle by particle.)
For the molecule B1, the response was half-maximal at 1.66 nM (EC50) and the “Maximum mean fluorescence intensity” value turned out to be 26700 MFI.

On to B2, for which it took 1.39 nM to reach a half-maximal effect (EC50) and the “Maximum mean fluorescence intensity” value worked out at 24400 MFI.

B3: the response was half-maximal at 0.45 nM (EC50) and the “Maximum mean fluorescence intensity” value is 28800 MFI.

As for B4, the EC50 turned out to be 0.23 nM and the “Maximum mean fluorescence intensity” value turned out to be 25900 MFI.

A further assay deals with T2, human CD22, full length, on …. Put plainly: FACS, CHO-K1-human CD22 2C4 cells.
From the text: as §1
Turning to B1, the EC50 stood at 2.08 nM and the “Maximum mean fluorescence intensity” value stood at 31200 MFI.

For B2, the midpoint of the response, the EC50, lay at 2.53 nM and the “Maximum mean fluorescence intensity” value turned out to be 28300 MFI.

B3: it took 1.18 nM to reach a half-maximal effect (EC50) and the “Maximum mean fluorescence intensity” value was determined as 35400 MFI.

Turning to B4, the midpoint of the response, the EC50, lay at 0.63 nM and the “Maximum mean fluorescence intensity” value came out at 29700 MFI.

The target of another assay is T3, murine CD22 protein (ACROBiosystems, …). Put plainly: ELISA, coated murine CD22, 10 nM Ab. As to the method:
(§2) In order to detect the binding activity of CD22 human-murine chimeric antibodies to CD22 protein, the purified human CD22-ECD-His protein obtained in Example 2 was diluted with PBS to a final concentration of 2 μg/mL, and then added to 96-well ELISA plate at 100 μl/well. The plate was sealed with plastic film and incubated overnight at 4° C., the plate was washed 2 times with PBS the next day, and then a blocking solution [PBS+2% (w/w) BSA] was added for blocking at room temperature for 2 hours. […] After incubation at 37° C. for 2 hours, the plate was washed 3 times with PBS. HRP (horseradish peroxidase)-labeled secondary antibody (purchased from Sigma, catalog number: A0170) was added, and incubated at 37° C. for 2 hours, and the plate was washed 5 times with PBS. TMB substrate was added at 50 μl/well, and incubated at room temperature for 30 minutes, then a stop solution (1.0 N HCl) was added at 50 μl/well.
(§3) In order to detect the species cross-binding activity of the chimeric antibodies, an ELISA plate was coated with commercial murine CD22 protein (ACROBiosystems, catalog number: SI2-M52Ha) and monkey CD22 protein (ACROBiosystems, catalog number: SI2-R52Ha), respectively, and the ELISA detection was performed according to the method in Example 5.1.
On the technique in general: An ELISA detects its analyte on a solid surface through an enzyme-linked reagent.
With B5, the OD450 was found to be 0.08 OD450.

Regarding B1, the OD450 was found to be 0.08 OD450.

In the case of B2, the OD450 was found to be 0.05 OD450.

As to B3, the OD450 turned out to be 0.06 OD450.

With B4, the OD450 is 0.06 OD450.

Another assay shares this target. Put plainly: ELISA, coated murine CD22, 0.1 nM Ab. As to the method: as §2, §3
The molecule B5 had an OD450 of 0.07 OD450.

With B1, the OD450 worked out at 0.06 OD450.

The molecule B2 displayed an OD450 of 0.05 OD450.

The molecule B3 had an OD450 of 0.05 OD450.

In turn, B4 had an OD450 of 0.06 OD450.

Another assay shares this target. Put plainly: ELISA, coated murine CD22, 100 nM Ab. The protocol:
as §2, §3
As to B5, the OD450 was found to be 0.11 OD450.

Turning to B1, the OD450 amounted to 0.07 OD450.

In turn, B2 registered an OD450 of 0.08 OD450.

As for B3, the OD450 came to 0.06 OD450.

Molecule B4 came in with an OD450 of 0.07 OD450.

A further assay has the same target. Nature of the assay: ELISA, coated murine CD22, 0.01 nM Ab. As to the method: as §2, §3
B5 returned an OD450 of 0.07 OD450.

With B1, the OD450 worked out at 0.06 OD450.

B2 came in with an OD450 of 0.05 OD450.

Molecule B3 came in with an OD450 of 0.05 OD450.

The molecule B4 showed an OD450 of 0.06 OD450.

A further assay shares this target. Put plainly: ELISA, coated murine CD22, 0.001 nM Ab. As to the method: as §2, §3
In turn, B5 registered an OD450 of 0.06 OD450.

Molecule B1 displayed an OD450 of 0.07 OD450.

As to B2, the OD450 is 0.05 OD450.

Consider B3, for which the OD450 was 0.05 OD450.

As for B4, the OD450 was determined as 0.06 OD450.

The next assay has the same target. Put plainly: ELISA, coated murine CD22, 0.0001 nM Ab. As to the method: as §2, §3
Take B5: the OD450 was found to be 0.07 OD450.

On to B1, for which the OD450 turned out to be 0.07 OD450.

On to B2, for which the OD450 was 0.05 OD450.

As to B3, the OD450 turned out to be 0.05 OD450.

In turn, B4 gave an OD450 of 0.06 OD450.

The target is the same in another assay. Nature of the assay: ELISA, coated murine CD22, 0.00001 nM Ab. As to the method: as §2, §3
For B5, the OD450 came out at 0.07 OD450.

As for B1, the OD450 came to 0.07 OD450.

Take B2: the OD450 amounted to 0.05 OD450.

In turn, B3 yielded an OD450 of 0.06 OD450.

The molecule B4 had an OD450 of 0.06 OD450.

By EC50 is commonly meant the concentration needed to bring the measured effect to its halfway point. A lower EC50 goes with higher potency in that assay.

The values are drawn from US20240084003A1 (SIMCERE ZAIMING PHARMACEUTICAL, published 2024).
